Assay results published in patent US20150203575A1 (Genentech, published 2015).

B1: mCD99-Fc (Fc fusion, mouse, UniProt Q8VCN6 29-137, looked up)
chain: DDFNLGDALEDPNMKPTPKAPTPKKPSGGFDLEDALPGGGGGGAGEKPGNRPQPDPKPPRPHGDSGGISDSDLADAAGQGGGGAGRRGSGDEGGHGGAGGAEPEGTPQG
modifications: three O-glycans NeuAc1-2Hex1HexNAc1
notes: also called mouse CD99-Fc; mCD99 (SPR analyte); not shown: Fc
B2: human CD99 expressed on 293T cells (ligand, UniProt P14209 23-185, looked up)
chain: DGGFDLSDALPDNENKKPTAIPKKPSAGDDFDLGDAVVDGENDDPRPPNPPKPMPNPNPNHPSSSGSFSDADLADGVSGGEGKGGSDGGGSHRKEGEEADAPGVIPGIVGAVVVAVAGAISSFIAYQKKKLCFKENAEQGEVDMESHRNANAEPAVQRTLLEK
notes: whole, on cells; also called hCD99; hCD99 transfectants
B3: mouse CD99 expressed on 293T cells (ligand, UniProt Q8VCN6 29-175, looked up)
chain: DDFNLGDALEDPNMKPTPKAPTPKKPSGGFDLEDALPGGGGGGAGEKPGNRPQPDPKPPRPHGDSGGISDSDLADAAGQGGGGAGRRGSGDEGGHGGAGGAEPEGTPQGLVPGVVAAVVAAVAGAVSSFVAYQRRRLCFREGGSAPV
modifications: sialylated O-glycans at Thr-45 and Thr-50 (cited as relevant for PILRα recognition)
notes: whole, on cells; also called mCD99; mCD99 transfectants
B4: hPILRαR126A expressed on 293T cells (receptor)
chain: QPSGSTGSGPSYLYGVTQPKHLSASMGGSVEIPFSFYYPWELATAPDVRISWRRGHFHRQSFYSTRPPSIHKDYVNRLFLNWTEGQKSGFLRISNLQKQDQSVYFCAVELDTRSSGRQQWQSIEGTKLSITQAVTTTTQRPSSMTTTWRLSSTTTTTGLRVTQGKRRSDSWHISLETAVGVAVAVTVLGIMILGLICLLRWRRRKGQQRTKATTPAREPFQNTEEPYENIRNEGQNTDPKLNPKDDGIVYASLALSSSTSPRAPPSHRPLKSPQNETLYSVLKA
notes: also called human PILRαR126A; hPILRαR126A transfectants
B5: hNPDC1-Fc (Fc fusion)
chain: GHPDVAACPGSLDCALKRRARCPPGAHACGPCLQPFQEDQQGLCVPRMRRPPGGGRPQPRLEDEIDFLAQELARKESGQSTPPLPKDRQRLPEPATLGFSARGQGLELGLPSTPGTPTPTPHTSLGSPVSSDPVHMSPLEPRGGQGD
modifications: sialylated O-glycans
notes: Whole entry named; also called human NPDC1-Fc; hNPDC1 (SPR analyte); not shown: Fc
B6: hNPDC1-His (ligand, not shown: small tags and cut ends)
chain: B5 chain
modifications: Sialylated O-glycans, which the patent says are needed for PILRα binding, cannot be carried by the letters
notes: also called hNPDC1-His (WT); hNPDC1-His (mut) (labels name the immobilised hPILRα form)
B7: mPILRαR133A expressed on 293T cells (receptor)
chain: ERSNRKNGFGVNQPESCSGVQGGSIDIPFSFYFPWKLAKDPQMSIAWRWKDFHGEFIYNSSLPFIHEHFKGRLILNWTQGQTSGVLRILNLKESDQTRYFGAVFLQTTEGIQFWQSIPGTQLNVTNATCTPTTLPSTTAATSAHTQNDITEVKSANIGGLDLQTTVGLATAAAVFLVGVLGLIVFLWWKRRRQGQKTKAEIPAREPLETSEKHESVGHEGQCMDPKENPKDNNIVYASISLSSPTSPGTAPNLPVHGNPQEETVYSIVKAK
notes: also called mouse PILRα133A; mPILRαR133A transfectants

Columns and labels:
[1] = molecular target: B7; assay: flow cytometry, transfected 293T cells, PILRα-positive cells gated
[2] = molecular target: B4; assay: as above
hPILRα-Fc = molecular target: T1, hPILRα-Fc (human; mouse, UniProt Q9UKJ1 20-197); assay: flow cytometry, transfected 293T cells
T1 construct: also called human PILRα-Fc; WT hPILRα-Fc; not shown: Fc of mouse IgG2a (PILRα-mIgG2a, called PILRα-Fc)

mPILRα-Fc = molecular target: T2, mPILRα-Fc (mouse, UniProt Q2YFS3 32-198); assay: flow cytometry, transfected 293T cells
T2 construct: also called mouse PILRα-Fc; WT mPILRα-Fc; not shown: Fc of mouse IgG2a (PILRα-mIgG2a, called PILRα-Fc)
T2 sequence (Q2YFS3 32-198): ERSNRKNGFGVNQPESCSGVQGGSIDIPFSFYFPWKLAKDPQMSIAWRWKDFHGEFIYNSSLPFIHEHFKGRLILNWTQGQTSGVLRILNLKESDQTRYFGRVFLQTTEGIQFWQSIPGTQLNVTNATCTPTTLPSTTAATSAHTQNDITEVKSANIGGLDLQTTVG

hCOLEC12-his = molecular target: T3, hCOLEC12-his (human, UniProt Q5KU26 59-742, sialylated O-glycans and N-glycans); assay: flow cytometry, transfected 293T cells, PILRα-positive cells gated
T3 construct: Whole entry named; also called human COLEC12-his; hCOLEC12 (SPR); not shown: his tag
T3 sequence (Q5KU26 59-742 S522P/G606S limits assumed): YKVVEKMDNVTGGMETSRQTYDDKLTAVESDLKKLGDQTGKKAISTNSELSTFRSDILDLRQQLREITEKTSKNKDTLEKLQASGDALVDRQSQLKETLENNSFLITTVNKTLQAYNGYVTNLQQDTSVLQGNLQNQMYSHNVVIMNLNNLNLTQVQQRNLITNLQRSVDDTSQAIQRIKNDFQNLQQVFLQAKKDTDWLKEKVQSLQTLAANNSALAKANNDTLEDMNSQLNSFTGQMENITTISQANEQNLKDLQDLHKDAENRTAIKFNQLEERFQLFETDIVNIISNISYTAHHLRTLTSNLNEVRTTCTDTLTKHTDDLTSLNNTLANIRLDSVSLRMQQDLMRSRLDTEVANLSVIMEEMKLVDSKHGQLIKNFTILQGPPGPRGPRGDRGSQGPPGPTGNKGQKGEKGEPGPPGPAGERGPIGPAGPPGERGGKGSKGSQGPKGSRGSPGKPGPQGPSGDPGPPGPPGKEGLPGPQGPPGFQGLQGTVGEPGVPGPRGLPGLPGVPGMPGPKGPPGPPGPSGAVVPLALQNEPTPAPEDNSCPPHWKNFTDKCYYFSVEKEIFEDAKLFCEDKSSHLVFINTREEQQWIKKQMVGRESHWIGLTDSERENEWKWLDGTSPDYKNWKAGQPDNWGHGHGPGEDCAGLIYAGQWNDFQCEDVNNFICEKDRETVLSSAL

hPILRαR126A-Fc = molecular target: T4, hPILRαR126A-Fc (human; mouse, UniProt Q9UKJ1 20-197); assay: SPR, hPILRα R126A-Fc immobilized, response difference
T4 construct: Arg mutant of hPILRα-Fc; also called hPILRα R126-Fc; mutant hPILRα; not shown: Fc of mouse IgG2a (PILRα-mIgG2a, called PILRα-Fc)

B1: no binding [1]; no binding [2].

B2: no binding (hPILRα-Fc); no binding (mPILRα-Fc).

B3: binds (hPILRα-Fc); binds (mPILRα-Fc).

B4: no binding (hCOLEC12-his).

B5: no binding [1]; no binding [2].

B6: no binding (tested: 1 µM) (hPILRαR126A-Fc).

B7: no binding (hCOLEC12-his).
